Experimental data taken from patent US20140161799A1 (ARCH ONCOLOGY, published 2014).
Substitutions are numbered along the chain they refer to.

T1: rat CD47 (rat, UniProt P97829 19-303)
T1 construct: whole, on cells; also called CD47 on rat red blood cells
T1 sequence (looked up): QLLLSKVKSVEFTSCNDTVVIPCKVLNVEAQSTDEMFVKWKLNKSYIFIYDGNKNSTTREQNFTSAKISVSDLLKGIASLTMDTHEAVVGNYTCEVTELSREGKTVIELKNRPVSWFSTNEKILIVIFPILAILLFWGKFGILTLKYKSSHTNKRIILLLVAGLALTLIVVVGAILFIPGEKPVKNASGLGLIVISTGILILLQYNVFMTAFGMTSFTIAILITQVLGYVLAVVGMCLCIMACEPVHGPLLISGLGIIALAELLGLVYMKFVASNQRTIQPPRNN

T2: pig CD47 (pig, UniProt Q9GKE8 19-303)
T2 construct: whole, on cells; also called CD47 on pig red blood cells
T2 sequence (looked up): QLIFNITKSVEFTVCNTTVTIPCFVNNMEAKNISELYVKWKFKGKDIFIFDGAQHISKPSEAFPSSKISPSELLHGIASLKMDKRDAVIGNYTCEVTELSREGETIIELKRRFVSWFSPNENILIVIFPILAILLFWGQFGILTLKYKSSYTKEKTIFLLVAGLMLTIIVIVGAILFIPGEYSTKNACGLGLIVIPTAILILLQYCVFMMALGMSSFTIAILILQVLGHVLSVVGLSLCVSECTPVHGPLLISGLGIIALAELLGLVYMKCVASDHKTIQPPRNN

T3: mouse CD47 (mouse, UniProt Q61735 19-303)
T3 construct: whole, on cells; also called CD47 on mouse red blood cells
T3 sequence (looked up): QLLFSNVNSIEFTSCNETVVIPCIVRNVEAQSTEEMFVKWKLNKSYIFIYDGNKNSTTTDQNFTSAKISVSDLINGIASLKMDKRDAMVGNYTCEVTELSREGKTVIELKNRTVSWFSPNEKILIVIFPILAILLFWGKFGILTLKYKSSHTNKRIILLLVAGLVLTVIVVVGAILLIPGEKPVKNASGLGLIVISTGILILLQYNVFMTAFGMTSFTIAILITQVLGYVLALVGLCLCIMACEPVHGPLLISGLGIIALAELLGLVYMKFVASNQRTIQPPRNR

B1: pVxK7b-037-hum22-LC/pVxK7b-037-hum22-HC (antibody, human IgG1, V domains shown)
VH: QVQLQESGPGLVKPSQTLSLTCTVSGYTFTNYYVFWVRQARGQRLEWIGDINPVNGDTNFNEKFKNRLTISKDTSKNQVVLTMTNMDPVDTATYYCARGGYTMDYWGQG
VL: EIVLTQSPATLSVSPGERATLSCRSSQSLVHSNGNTYLHWYQQKPGQAPRLLIYKVSYRFSGVPSRFSGSGSGTDFTFTISSLEAEDAATYYCSQNTHVPRTFGQG
notes: Full-length human IgG1/kappa in CHO supernatant; Variable entries end within framework 4 (...FGQG / ...WGQG); also called Clone 22
B2: pVxK7b-037-hum20-LC/pVxK7b-037-hum20-HC (antibody, human IgG1, V domains shown)
VH: QITLKESGPTLVKPTQTLTLTCTFSGYTFTNYYVFWVRQAPGQGLEWMGDINPVNGDTNFNEKFKNRVTITADKSTSTAYMELSSLRSEDTAVYYCARGGYTMDYWGQG
VL: DIVMTQTPLSLPVTPGEPASISCRSSQSLVHSNGNTYLHWYLQKPGQSPQLLIYKVSYRFSGVPDRFSGSGSGTDFTLKISRVEAEDVGVYYCSQNTHVPRTFGQG
notes: Full-length human IgG1/kappa in CHO supernatant; Variable entries end within framework 4 (...FGQG / ...WGQG); also called Clone 20
B3: pVxK7b-037-hum17-LC/pVxK7b-037-hum17-HC (antibody, human IgG1, V domains shown)
VH: EVQLVQSGAEVKKPGATVKISCKVSGYTFTNYYVFWIRQPPGKGLEWIGDINPVNGDTNFNEKFKNRVTITADKSTSTAYMELSSLRSEDTAVYYCARGGYTMDYWGQG
VL: AIQLTQSPSSLSASVGDRVTITCRSSQSLVHSNGNTYLHWYQQKPGQAPRLLIYKVSYRFSGVPDRFSGSGSGTDFTLKISRVEAEDVGVYYCSQNTHVPRTFGQG
notes: Full-length human IgG1/kappa in CHO supernatant; Variable entries end within framework 4 (...FGQG / ...WGQG); also called Clone 17
B4: pVxK7b-037-hum18-LC/pVxK7b-037-hum18-HC (antibody, human IgG1, V domains shown)
VH: B3 VH with A16E, T17S, V18L, K19R, V24G, P40S, G42S, K43R, I48L
VL: B1 VL
notes: Full-length human IgG1/kappa in CHO supernatant; Variable entries end within framework 4 (...FGQG / ...WGQG); also called Clone 18

Assays:
Assay in all cases: flow cytometry on RBCs, antibody 10 ng/ml
human CD47 = molecular target: T4, human CD47 (human, UniProt Q08722 19-323)
T4 construct: whole, on cells; also called CD47 on human red blood cells
T4 sequence (Q08722 19-323): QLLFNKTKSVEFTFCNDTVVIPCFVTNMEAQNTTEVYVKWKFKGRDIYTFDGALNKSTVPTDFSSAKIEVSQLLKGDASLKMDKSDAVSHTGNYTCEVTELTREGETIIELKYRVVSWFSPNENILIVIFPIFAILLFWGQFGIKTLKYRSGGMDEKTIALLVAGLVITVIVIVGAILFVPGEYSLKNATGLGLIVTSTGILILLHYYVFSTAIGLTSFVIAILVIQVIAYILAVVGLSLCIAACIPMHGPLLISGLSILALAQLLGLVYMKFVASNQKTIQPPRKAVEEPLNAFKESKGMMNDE
Protocol: (§1) Cross species reactivity of humanized antibodies of the present invention is determined using freshly isolated red blood cells (RBCs), which display CD47 on their surface, from human, mouse, rat, and pig according to the methods disclosed in Kamel et al. (2010) Blood. Transfus. 8(4):260-266.
(§2) RBCs are incubated for 60 minutes on ice with tissue culture supernatants containing the secreted humanized antibodies at a concentration of 10 ng/ml in a solution of phosphate buffered saline, pH 7.2, 2.5 mM EDTA (PBS+E). Cells are then washed with cold PBS+E, and incubated for an additional hour on ice with FITC labeled donkey anti-human antibody (Jackson Immuno Research Labs, West Grove, Pa.; Catalogue #709-096-149) in PBS+E. Cells are then washed with PBS+E, and antibody binding is analyzed using a BD FACSAria Cell Sorter (Becton Dickinson) or a C6 Accuri Flow Cytometer (Becton Dickinson). Antibody binding is quantitated by comparison of mean fluorescence values relative to that of chimeric antibody >VxP037-01LC (SEQ ID NO:7))/>VxP037-01HC (SEQ ID NO:57). The mean fluorescence value for each antibody is divided by the mean fluorescence value for the chimeric antibody.

rat CD47 = molecular target: T1, rat CD47
Protocol: as §1, §2

pig CD47 = molecular target: T2, pig CD47
Protocol: as §1, §2

mouse CD47 = molecular target: T3, mouse CD47
Protocol: as §1, §2

Binder	mean fluorescence relative to chimeric antibody (human CD47)	mean fluorescence relative to chimeric antibody (rat CD47)	mean fluorescence relative to chimeric antibody (pig CD47)	mean fluorescence relative to chimeric antibody (mouse CD47)
B1	1.1 fold of chimera	2.8 fold of chimera	1.4 fold of chimera	1.2 fold of chimera
B2	1.3 fold of chimera	1.9 fold of chimera	1.7 fold of chimera	1.5 fold of chimera
B3	0.8 fold of chimera	2.1 fold of chimera	1.3 fold of chimera	0.9 fold of chimera
B4	1 fold of chimera	2.2 fold of chimera	1.2 fold of chimera	1.3 fold of chimera
